According to article PMC2229230:
Read-outs that look alike come from different tables or passages of the source.

What was measured:
endo-Gly0-gramicidin C [1] = test: single-channel recording in planar lipid bilayers
endo-Gly0-gramicidin C [2] = test: single-channel recording in planar lipid bilayers; remark: listed apart in the source

Substance: endo-Gly0-gramicidin C (peptide)
- average channel duration tau (dimer lifetime, 1/k-1) (endo-Gly0-gramicidin C [1]): 862 ms
- average channel duration tau (dimer lifetime, 1/k-1) (endo-Gly0-gramicidin C [2]): 410 ms
